This is an account of results in patent US20120309934A1 (GWANGJU INSTITUTE OF SCIENCE AND TECHNOLOGY, published 2012).

The target of experiment [1] is T1, VEGF121 (human vascular endothelial growth factor) (human, UniProt P15692-9 27-147).
T1 construct: Immobilised on a CM5 chip by EDC/NHS for SPR and coated on plates for phage ELISA; also called VEGF-Trx cut with thrombin
T1 sequence (looked up): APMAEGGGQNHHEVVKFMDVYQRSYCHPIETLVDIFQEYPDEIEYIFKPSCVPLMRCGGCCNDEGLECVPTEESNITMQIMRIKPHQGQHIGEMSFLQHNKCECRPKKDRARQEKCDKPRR
The experiment can be described thus: phage ELISA, absorbance at 450 nm.

The target in experiment [2] is T2, Streptavidin (UniProt P22629 37-163, limits assumed).
T2 construct: Control protein in the input-phage ELISA; also called straptavidin
The experiment can be described thus: phage ELISA, absorbance at 450 nm. A general note: An ELISA detects its analyte on a solid surface through an enzyme-linked reagent.

The target in experiment [3] is T3, BSA (UniProt P02769 25-607).
T3 construct: Control protein in the input-phage ELISA; also called bovine serum albumin
The experiment can be described thus: phage ELISA, absorbance at 450 nm.

The target of experiment [4] is T4, Human serum albumin (human, UniProt P02768 25-609).
T4 construct: Bought protein; also called HSA; HAS
The experiment can be described thus: phage ELISA, absorbance at 450 nm.

Experiment [5] addresses T5, STAT3 protein (UniProt P40763 1-770, limits assumed). The experiment can be described thus: SPR (Biacore X), STAT3 (4000 RU) on CM5 chip, peptide at 2, 5 and 7.5 µM. The procedure:
The peptide sequences were identified by DNA sequencing. Two peptides were synthesized (BPB1: QAYYIP […] LWGPEF; BPB2: HGFQWP […] AYQFLK).
The affinity of the bipodal-peptide binder (BPB1: QAYYIP […] LWGPEF) was measured using SPR (Biacore X). The STAT3 protein (4000 RU) was fixed onto the CM5 chip. The concentrations of 2 μM, 5 μM and 7.5 μM the bipodal-peptide binder were used.
For orientation: In SPR one partner is held on a chip, and binding of the other changes the refractive index at the surface.

For experiment [6], the target named is T5, STAT3 protein. The experiment can be described thus: phage ELISA of single clones on STAT3 against streptavidin. On the procedure:
STAT3 (10 μg/ml), BSA (10 μg/ml) and streptavidin (10 μg/ml) each was added to 30 wells (50 μl per well) in a 96-well ELISA plate and then kept to stand at 4° C. overnight. Next day, all wells were washed with 0.1% PBST three times, and blocked at room temperature for 2 hrs using 2% skim milk diluted with PBS. Then, the solution was removed and the plate was washed with 0.1% PBST three times. Phage peptide solution (100 μl) amplified from each clone was aliquoted to STAT3-bound wells and streptavidin protein-bound wells and kept to stand at 27° C. for 1.5 hrs. After washing with 0.1% PBST 10 times, HRP-conjugated anti-M13 antibodies (1:1,000 dilution; GE Healthcare) were added to each well and incubated at 27° C. for 1 hr. After washing with 0.1% PBST 5 times, 100 μl TMB was divided into each well to induce colorimetric reaction, followed by stopping the reaction adding 100 μl of 1 M HCl. The absorbance was measured at 450 nm to select phages which had the absorbance above 20-fold higher than BSA. XL1 cells were infected with these phages and spread in plate to produce 100-200 of plaques. […]
The phages recovered from the 4th biopanning step having the highest O/I ratio in each library were isolated as plaques. […] The DNA 10 sequencing was performed for 6 clones showing the absorbance value above 2-fold higher than streptavidin. […]

The Kd is the concentration at which binding is half-saturated. A lower Kd goes with higher affinity.

T5 sequence (P40763 whole entry): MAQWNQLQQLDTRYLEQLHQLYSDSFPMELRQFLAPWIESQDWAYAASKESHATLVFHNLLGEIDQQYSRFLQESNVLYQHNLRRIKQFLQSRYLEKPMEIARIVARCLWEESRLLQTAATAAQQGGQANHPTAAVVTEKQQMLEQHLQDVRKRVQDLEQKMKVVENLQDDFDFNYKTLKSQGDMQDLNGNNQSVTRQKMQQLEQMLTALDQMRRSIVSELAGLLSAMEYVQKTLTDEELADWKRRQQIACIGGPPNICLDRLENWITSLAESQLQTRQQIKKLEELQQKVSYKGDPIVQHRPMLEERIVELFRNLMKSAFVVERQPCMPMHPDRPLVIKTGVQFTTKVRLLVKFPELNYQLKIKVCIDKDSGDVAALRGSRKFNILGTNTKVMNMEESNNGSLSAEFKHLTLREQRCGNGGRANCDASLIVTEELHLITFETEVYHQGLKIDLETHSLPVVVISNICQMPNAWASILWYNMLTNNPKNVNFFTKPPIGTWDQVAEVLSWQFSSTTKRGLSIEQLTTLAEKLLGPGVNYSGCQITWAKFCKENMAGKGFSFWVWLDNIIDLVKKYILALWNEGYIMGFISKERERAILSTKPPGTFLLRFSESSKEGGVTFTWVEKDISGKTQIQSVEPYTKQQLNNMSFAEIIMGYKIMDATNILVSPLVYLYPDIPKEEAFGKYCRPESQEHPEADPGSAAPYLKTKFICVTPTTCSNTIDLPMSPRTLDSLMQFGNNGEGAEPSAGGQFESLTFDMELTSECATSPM
T3 sequence (P02769 25-607 limits assumed): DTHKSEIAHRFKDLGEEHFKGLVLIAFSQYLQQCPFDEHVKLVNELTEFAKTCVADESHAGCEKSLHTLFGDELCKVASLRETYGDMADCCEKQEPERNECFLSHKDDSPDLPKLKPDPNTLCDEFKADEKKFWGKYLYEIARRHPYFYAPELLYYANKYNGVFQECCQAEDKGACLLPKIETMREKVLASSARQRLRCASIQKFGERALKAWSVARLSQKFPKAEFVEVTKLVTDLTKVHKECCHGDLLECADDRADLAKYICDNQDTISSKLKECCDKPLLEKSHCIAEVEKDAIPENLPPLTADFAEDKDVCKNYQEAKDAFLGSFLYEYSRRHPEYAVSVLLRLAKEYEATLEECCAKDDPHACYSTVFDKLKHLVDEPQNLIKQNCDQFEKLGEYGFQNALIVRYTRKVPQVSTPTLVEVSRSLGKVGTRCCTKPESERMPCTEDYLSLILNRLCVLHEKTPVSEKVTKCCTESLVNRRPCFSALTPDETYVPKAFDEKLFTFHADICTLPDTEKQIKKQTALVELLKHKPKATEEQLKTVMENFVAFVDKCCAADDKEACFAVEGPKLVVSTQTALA
T4 sequence (P02768 25-609 limits assumed): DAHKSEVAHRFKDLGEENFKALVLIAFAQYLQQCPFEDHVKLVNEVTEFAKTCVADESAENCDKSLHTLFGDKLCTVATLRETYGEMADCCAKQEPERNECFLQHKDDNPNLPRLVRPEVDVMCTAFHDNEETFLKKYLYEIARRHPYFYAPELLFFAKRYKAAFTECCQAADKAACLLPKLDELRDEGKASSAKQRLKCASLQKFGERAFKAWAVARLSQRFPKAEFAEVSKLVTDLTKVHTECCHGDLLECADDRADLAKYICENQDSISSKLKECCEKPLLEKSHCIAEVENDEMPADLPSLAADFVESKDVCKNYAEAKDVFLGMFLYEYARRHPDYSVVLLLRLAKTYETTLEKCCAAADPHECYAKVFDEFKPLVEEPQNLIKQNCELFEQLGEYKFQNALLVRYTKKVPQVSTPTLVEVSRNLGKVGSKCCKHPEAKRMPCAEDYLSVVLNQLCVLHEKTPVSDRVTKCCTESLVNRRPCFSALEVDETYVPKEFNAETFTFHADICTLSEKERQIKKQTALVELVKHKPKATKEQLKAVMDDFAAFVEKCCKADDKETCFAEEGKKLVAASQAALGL
T2 sequence (P22629 37-163 limits assumed): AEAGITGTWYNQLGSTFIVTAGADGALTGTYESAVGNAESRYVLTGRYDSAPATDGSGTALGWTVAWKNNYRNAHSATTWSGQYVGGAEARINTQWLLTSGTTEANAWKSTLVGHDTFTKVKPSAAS

QAYYIPGSWTWENGKWTWKGLWGPEF (also called BPB1; Peptidel) [STAT3-specific bipodal-peptide binder Peptide 1]: the binding result in experiment [1], in experiment [2], in experiment [3] and in experiment [4] was “no binding” each time. Besides, the Kd in experiment [5] is around 1700 nM. The “fold absorbance over streptavidin” value in experiment [6] is above 2 fold.
